This data set is described as follows: label from the status in PepcDB records.
With “MQGWLVIPVSLAYLGVLFLIAWYGDRQTRWLANWRPWIYSLSIAVYCTSWTFYGTVGQASVNPWSFLPIYIAPILMFVFGWRVLARLILIAKREHITSLADFIAARYGKSQGLAVAVTVIAVLGILPYIALQLRGITMGLNIVAPDLMTVYGYQESHVSWFVVLALALFTMLFGTRHIDNTEHHRGMMMAIAFESIVKLVAFLCVGVFIAYLAWRTDGLELSTIAASTYQAPNWPTLLIHTLLTMIAIVCLPRQFHTMVVENERPQDLHTARWLFPVYLLLMSLFVLPIAWTGQGLLPNTSPDTFVISLPVFAGAHDIALLAFLGGTSAASGMVIVSTIALAIMVSNDLVMPLLLRRMRLSQRTHRHFSGLLVVIRRTLILLLLFGAWGFYLVLDSIPSLSAIGFLSFSAITQFAPAIFGGMYWREGNRKGVYVGLAVGFTLWLITLMSATDMLAGDASNNVLLWVITPPDWLVALGLKSADWGMLLSVTLNTLCYIGVSLVTRASLSERLQAAAFVGTPLPENENMSLYQSRVTVGELEMLASRFVGRTRVRNAFAQYWSQQRETLLPNQQASSALIRHTERVLAGVFGASSAKLVLTSALQGRKMQLEEVATIVDEASELYDFSRGLLQGAIEHIGQGIAVVDKQLRLVAWNQRYLELFEFPPGLIQVGRPIADVIRHNAQQGLCGPGDPEDHVRRRVYHLEQGTSHTSSRVRADGRVIEVQGNPMPGGGFVMSFTDITVFREAEQSLKMANETLEERVLQRTLELEKLNKQLVTATQRSERESQSKSRFLAAVSHDLMQPLNAARLFASSLSEVAKEAEVQKLAHHIESALGAAEDLISDLLDISRLESGKIDLHPHSFAIMDVLSNLNAEFSALAAKQGVQFSLVPSLLWVHSDPKLLRRVIQNFLTNAFRYNPNGKVILGVRRVATGQVRIDVWDNGIGIEQDKQQEIFEEFNRGGQVRSDQGLGLGLAISKGIAHVLGHHISMRSWPGQGSVFSITLDRAQPMPSSLTQTVAMVNEKGSELQHLRVLCVDNEPDILVGMRDLLERWGCEVKTATDIHGSLKALEGQWIPDVILSDYRLDNGRTGLEVLQQCRLRLGDCFAGVIISADRNPDILDGIESSGFRFMAKPIKPLKLRALLNSLS”, the protein production entry is “failed”. As for “MKQEFVAAIEIDGTGRIHVTPGESQFPYIYREAMEVSWNESTRSLHSPVPREWSYAQWLQQIFAAASEQGVKLVLGPNTRWVNVPNELRAELTHAAAA”, the entry is “not failed”; as for “MSVPSPVNESLLSQRLAALGAARSWAPNVLPELEHFIRTADDYDLLRVNPIQYGGAVRMSEADAIELFVHAAKVGLFDMDWLLICAYCPQVAGSFRELDQVHPRFQCAFCNAINDVALDDYIQVAFTVSSGVRDIIFRHPERLSVEDFYLRYNFSKGFIAPHGMTHQQLVAALSRGFADIEAHEHRSFDFEVTAGRFEVLDLSHKLLLVFFADGEPAEPQETLVQLESGRFHVPDRPTAPKDMVLGDGQFSFRQTADLSPGKHTIRIENRTDDRGRFWFVQYPPGFAPHLVEYEPFLSGKRLLLTPSFRELYKAQLVDEGESIKVSDMTFLFTDLKKSTPLYESVGDVNAYFLVRQHFEILNRIIRERSGTIIKTIGDAVMAGFERPQDAVCAAIEMIEELSRFNQTASRPLGLKVGVHRGRAIAVNLNDRIDYFGQDVNIAARVQGLADVDEVCISATAMEAPGVGDIVNSRSVSRNYENLKGIGQKMEVHRMTIPPTQT”, “failed”.

As to “MNNYVKVHQPLNVDLRTQKTQTKLYTVLERFYVEDRTFESISIKDLCEQARVSRATFYRHHKEIIQVIEVQILRTMQYFSLEFDQIILTKENIQRLILRTIQKNPLLFQVIFWSRAENIFIDVVSGEILRISLLKEVSFSDSKFMPNCFARMILSLAAEIQQSNKDYTNDQLVELIQEAARFLQK”, the protein production result was “not failed”.

Regarding “MVKTMSEVNFNSKAFTYADNALVQKSASEVLLNLLSIQPEEDVLDIGCGPGHITKKIAKITNGSVQGIDVSQGMIEQAISSNKDLPNLKYSVMDAENLELNTKFDVIVCNSCFQWFQKPDQVLMRCFNVLKEGGRIGIQAPATQSYCPNFISAIEKIRMHPYTREVFNHFKSPWFFFDSKDEYEQLFRNHGFDIIYSELREESNLFSVEQAYKIYQSGAENGYLNQSYYTVTLTDNYISTFRELVKEALQEQADNSGMINLKFERIYLVAKKQ”, the protein production result was “failed”. Take “MTPFPHASLFTPHSSRITPSLHLPVRLGNATFDTRHRTALTMSADRLEQLKTFHEEDPEDPFTRYALAQEHLKHDNASRALALFEELVETDPDYVGTYYHLGKLYERLDRTDDAIDTYAQGIEVAREEGTQKDLSELQDAKLKAEGVGFD”: the protein production entry is given as “failed”. As for “MFNQLVKVIPNLFTIGNLLCGVFSITLNMSEYLGAASILIFFSAVLDFLDGRIARKLKVNSEFGVELDSLADIVSFGVAPALLFHTIATPSILTSLAFILFPTMGALRLAKFSIKPTIGYFKGLPIPAAGLSLAGMALFSYSNAWITLILALLMVSPIRFKKF”, the entry is “not failed”. Regarding “MTKKKVYIVSHSHWDREWYLPYEEHHMRLIELVDNVLDLIENDPEFNSFHLDGQTIILDDYLQVRPEKKEAVKKAVQAGKLKIGPFYILQDDFLISSESNVRNMLIGHLESQKWGAPVQLGYFPDTFGNMGQTPQMMQLANLPAAAFGRGVKPIGFDNQVLESDYSSQYSEMWWEGPDQTKIFGLLFANWYSNGNEIPSEKEAAIAFWKQKLADVERYASTNHLLMMNGVDHQPVQRDITKAIALANELFPEYEFIHSNFDDYLKAVQEELPEDLGTVTGELTSQETDGWYTLANTSSARVYLKQWNTKVQRQLENIAEPLAAMAYEVTGDYPHDQFDYAWKTLLQNHPHDSICGCSVDEVHRGMMTRFENANDVGHFLADEATRQLTEAIDTSVFPEKAHPFVLFNTSGYQKTEVVTVEVEIERLPFYTGKPEDLYHELKQKATPDYQVIDPTGKAVASRIVKEDVRFGYDLPKDAFRQPYMAKYLTVELSVKEMAPFSWDSFALIQGETKAFEGSLLAQPATNEMENEFIQVKIENNGSLTIADKKTGETFSKLLTFEDTGDIGNEYIFFKPTEDQGITTENVTAEITNKENSPVKASYQIKQTVMLPVAADERLEEEQKAVREFRERLAQRSTTLRPFEITTMVTMIKESNQLFFETTINNQIKDHRLRVLFPTGMVTETHEADSIYEVVTRPNQVSDTWENPTNPQHQQAFVNVHDQNKGVTIFNEGLNEYEVLADGTIAVTLIRCVGELGDWGYFATPEAQCQGEYTFKYGLSLHGKPEERFATYQQAYSAQIPFTAATTARHEGKLAPNHVYLTTAEGPIGWTAVKRQEQTNHLVVRGFNLTAQNIPCELHKETQPATCLTNVLEEPLTPAIEVDAPLRPFEIRTWRFEK”, the protein production entry was “not failed”. Then “MNTSEHEREHDHVIEVTDLRRVYGGDFEAVRGITFSVERGELFALLGTNGAGKTSTVELLEGLAAPSGGRVRVLGHDPYEERAAVRPRTGVMLQEGGFPSELTVAETVRMWAGCTSGARPVGEALSLVGLERRPDVRVKQLSGGERRRLDLALALLGRPEVLFLDEPTTGLDAEGRQETWELVRELRDGGTTVLLTTHYLEEAEGLADRLAILHEGRIATAGTPAEVTAAQPSRISFDLPDGYFLGDLPPLADLGVSTHETTGRTVRLRTHELQRTATALLLWAQRAQVELRGLDVRSASLEEAFLRIAREAAGDRPGRPGRTDVSGTTASGKEAVALEHHHHHH”, with “not failed”; and “MASEWNVAAERHSALHYLYRLGDAVLIAVCGIAMGALYFHDGIRSAAPVNGFLTMLCALGALLIFPAFGIYESWRGRSRAVLGLRIAAAWTLVFISGLLGAFLIHQIGAVSRVWSMGWFIGTGVMLALSRVVMFRMLANVRQQGINAKRVLIFGYGPLGREMYDRVQHFRDAGYRVVGVYDEESDAIPYDVTPLRQIEEVSGFVRDHGVREIWLTLPMAACRDLSGVVRQFRNEMIDIRWVPDVSSVELLGHRFSEFMGLPVIDLNSPPVSGITGVVKASFDRVFSLGVLVCLSPLLLLIAAMVKLSSPGPVLFRQQRLGIDGQPFNVYKFRTMRQHQDGGGVTQAVRGDPRVTRVGAFLRRTSLDELPQFINVLRGEMSVVGPRPHAMEHNELYKELIDRYMLRHRVKPGITGWAQINGLRGQTDTVEKMRKRIEFDIYYIQHWSFQLDLRIILRTALHGWTGTTAY”, with “failed”; and “MDTPNKDDSIIRFSVSLQQNLLDELDNRIIKNGYSSRSELVRDMIREKLVEDNWAEDNPNDESKIAVLVVIYDHHQRELNQRMIDIQHASGTHVLCTTHIHMDEHNCLETIILQGNSFEIQRLQLEIGGLRGVKFAKLTKASSFEYNE”, with “failed”. As for “SLWQPQTGDIIFQISRSSQSKAIQLATHSDYSHTGMLVMRNKKPYVFEAVGPVKYTPLKQWIAHGEKGKYVVRRVEGGLSVEQQQKLAQTAKRYLGKPYDFSFSWSDDRQYCSEVVWKVYQNALGMRVGEQQKLKEFDLSNPLVQAKLKERYGKNIPLEETVVSPQAVFDAPQLTTVAKEWPLFSW”, the protein production result is “not failed”.

Consider “MSIDWAALGSVFGVSLVVTVGLVGLFTLGIVGLTKKESAEGGSAALATTGAYACFAACAAAVAYGIYLIVA”, for which the protein production result is recorded as “failed”. As for “SKETIMNQKLTKRQAEVHTGRKGTAHRKKVVHTTAEDKKFQFSLKKLGVNNIPGIEEVNMFTHQGTVIHFNNPEVQASLAANTFTMTGHAETKQLTEMLLSIDHKPVLQMV”, the protein production entry is given as “not failed”.

Take “MAISKALIASLLISLLVLQLVQADVENSQKKNGYAKKIGFRGGRGCVTERAGLAATGATVCLRVRTETTTSASATLASPPTVDAASAHKKKQSS”: the protein production result is reported as “failed”. For the sequence “MNKKIFYITILLHLPNLLFSYSTKYDIEVKMSAFVMSLAIIVISSISIGNLVAKIGIPKVIGQITAGIILSPNAFGKIQIPLLFPLGITQIGENYLINEKIFAISTIASIILLFTAGLETDLKLFIKFLPRGGIIGITEVVGTFTSFVLMASIIFNVPLISPTSLFIGIIGTPTSAGIAASILSAKKKMSTSEGVTIISTSIIDDVLSMLMLTSVITISRSISDLDIASSIKAIVQNIVIWLCLTFSLIYISETLSRLLKKLNSVTLATVITLSLALTIASIFQNLGMSFVVGAYVFGLAMSKTDIVYVIQDKLTIFERFFIPIFFTSIGLMSDINEILSKEVLILGLAISAIAIITKSIFCFIPALFLGFNKLGALKIATGMVPRGEVSLIMANVALSSGFISQKIFGIIIIMVFLPTIIATPIINFLFKINKSGLKKELPIDQNTHICVSFEYDNLAKILIWDFKNELRKEGFFTQQIKNDSSQYINARKNNISFSIKREGSKITFECPNNHLIIIQDLFRETILNLEKITKEVETVSLRAKKLDYSINYDKILSNINLNKRIKKENIILELKSSNKADVIRELLSVINIEIDKERIFQDLMEREKLITTALKEGFAIPHLKTNLISKIHIAIGISHEGIDFNALDKNLSHVFILILCPAKDYVSYPRILASVVGKVDLYKKEILNAKTDKEIYNIIVS”, the protein production entry is listed as “failed”. Then “MMRVGIIGAGNIGHMHAEAVAACENTLLTGVFDLDRERAQSLARASGTVAFASPDELYKASDGVVVASPNRTHADYAREAVAYGRSVLCEKPMAVSLLQAADMRALAAVAPGVCAVGFNYRYLNVIREARNRIGEGMLGRVVHVDVAFKRASALTRQHFTWRDSAAEGHTSGALGDLGVHLIDMLHHLFRSPVDLASCQVALRTKVAAKGGHAVEVDDHAFVSGRIEGGPSFTLTASKASQPEETGFTLAAMGSRGDLSHDSQDGPVLHLRTGIDWEQVKLLGPSRLDDPRGEVTGWGDSFLDQLHDWAGAVTASQRSGTLADFEDGYQAQQVLQELLRIGGRM”, with “failed”. Take “EDGLFSVVLPFMSSFLLDPNAADPGYLKTRDYLTYNGVTTVADMNTGGTNWELEISALKRNLDTPESPIRVRLTPDVMKLAAALKSPEAAMTLVNQMKQHNTDNLVFNGGIKLFADGAMFSQAMQINAPGYIDGHKGEWITQPSSFVEFARSYWNAGYQIHVHTNGDGGAKMVLDTLQELENDKPRADHRFTVEHYGYADDGTSRRIAKLDAQVSANPFYLFDLGDRYAENGLGFDRAARIAPLGGLASRNVPVALHSDFPMAPAEPLFLAWTAMSRETLSGKVFSPSERLTLDQAIRAITIDAAYMIGMENE”: the protein production result is on record as “failed”.

Values taken from a protein production outcome set (Wang et al. 2014).
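Further: failed if final PepcDB status was selected cloned or expressed and not failed if soluble or beyond.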
